Numbered stars: 1 amine (or outer) side, 2 acyl side, 3 side chain; on linkers, the order of the positions; unused ones are H or OH. Bridge positions count the residues as written; N and C are the ends. * marks the point of attachment. C20 diacid = O=C(O)CCCCCCCCCCCCCCCCCCC(=O)*; γGlu = O=C(O)[C@H](CCC(=O)[*:2])N[*:1]
Legend:
[1] = molecular target: T1, human amylin 3(a) receptor (human calcitonin receptor plus RAMP-3) (human, UniProt P30988 25-474; O60896 24-148, limits assumed); test: cell-based or functional assay
T1 sequence (looked up) 1: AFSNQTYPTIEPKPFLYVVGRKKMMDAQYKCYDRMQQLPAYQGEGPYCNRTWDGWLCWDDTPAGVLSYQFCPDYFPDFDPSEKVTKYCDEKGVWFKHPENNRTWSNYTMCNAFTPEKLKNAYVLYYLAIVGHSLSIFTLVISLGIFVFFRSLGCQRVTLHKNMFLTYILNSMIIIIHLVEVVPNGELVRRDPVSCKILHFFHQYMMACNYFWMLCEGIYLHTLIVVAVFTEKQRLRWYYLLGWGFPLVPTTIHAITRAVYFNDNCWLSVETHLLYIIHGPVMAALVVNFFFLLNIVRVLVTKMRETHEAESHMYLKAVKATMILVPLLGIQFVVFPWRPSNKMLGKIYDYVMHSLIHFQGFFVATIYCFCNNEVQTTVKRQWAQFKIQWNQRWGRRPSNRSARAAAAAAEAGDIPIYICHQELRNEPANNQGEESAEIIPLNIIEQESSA
T1 sequence (looked up) 2: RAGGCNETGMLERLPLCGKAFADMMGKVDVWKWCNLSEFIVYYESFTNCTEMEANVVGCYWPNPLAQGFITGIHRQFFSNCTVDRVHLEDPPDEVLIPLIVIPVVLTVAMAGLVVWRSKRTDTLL

[2] = molecular target: T2, human calcitonin receptor (human, UniProt P30988 25-474); test: cell-based or functional assay
T2 sequence (looked up): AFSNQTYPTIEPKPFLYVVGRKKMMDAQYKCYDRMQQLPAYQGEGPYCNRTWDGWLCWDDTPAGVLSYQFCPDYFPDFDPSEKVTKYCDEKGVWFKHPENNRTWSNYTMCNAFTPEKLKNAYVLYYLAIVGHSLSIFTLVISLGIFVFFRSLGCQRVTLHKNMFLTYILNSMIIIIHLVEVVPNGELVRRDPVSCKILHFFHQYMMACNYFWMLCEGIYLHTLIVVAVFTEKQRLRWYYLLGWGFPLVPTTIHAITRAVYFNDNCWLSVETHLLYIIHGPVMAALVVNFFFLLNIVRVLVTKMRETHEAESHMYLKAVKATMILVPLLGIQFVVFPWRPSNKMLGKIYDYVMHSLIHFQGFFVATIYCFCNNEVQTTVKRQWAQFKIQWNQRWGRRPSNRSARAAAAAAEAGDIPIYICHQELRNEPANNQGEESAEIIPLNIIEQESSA

[3] = molecular target: T1, human amylin 3(a) receptor (human …); test: SPA competition binding, displacement of 125I-rat amylin from membranes of Amylin 3(a)/CRE-luc BHK cells (Assay V)
Method: The binding assay was performed using scintillation proximity assay (SPA) beads (RPNQ0001) from PerkinElmer and cell membranes from the Amylin 3(a)/CRE-luc cells (as described in Assay (II)) were used. Membranes were prepared in the following way; the cells were rinsed with PBS and incubated with Versene for approximately 5 min before harvesting. The cells were flushed with PBS and the cell-suspension was centrifuged for 5 min at 1000 rpm. Cells were homogenized (ultrathurrax) in a buffer containing 20 mM Na-HEPES and 10 mM EDTA (pH 7.4) and centrifuged at 20.000 rpm for 15 min. The resulting pellet was resuspended, homogenized and centrifuged (20.000 rpm, 15 min) in a buffer containing 20 mM Na-HEPES and 0.1 mM EDTA (pH 7.4, buffer 2). The resulting pellet was resuspended in buffer 2 and protein concentration was measured (BCA protein Assay, Pierce). The homogenate was kept cold during the whole procedure. The membranes were kept at −80° C. until use. The assay was performed in a 384 well Optiplate (PerkinElmer) in a total volume of 40 ul. Membranes were mixed with SPA beads. Final concentration of membranes 35 ng/μL final and SPA beads was 0.05 mg/well. Test-compounds were dissolved in DMSO and further diluted in assay buffer (50 mM Hepes, pH 7.4, 1 mM CaCl2, 5 mM MgCl₂, 0.1% OA and 0.02% Tween20). […] The final mixture was incubated with shaking at 400 rpm for 120 min at 25° C. prior to centrifugation (1500 rpm, 10 min). Samples were analyzed on TopCounter™ (Packard). The IC₅₀ was calculated using (one site binding competition analysis) GraphPad Prism5 as a measure of receptor affinity.

Binder | Ratio hCT/hAmylin funct. [1] | hAmylin-R funct. EC50 [1] | hCTR funct. EC50 [2] | IC50 [3]
{C20 diacid-γGlu}-KCNTATCATQRLAEFLRHSSPNFGAIPSSTNVGHNTY-NH2 (disulfide 2-7; SMILES CC[C@H](C)[C@H](NC(=O)[C@H](C)NC(=O)CNC(=O)[C@H](Cc1ccccc1)NC(=O)[C@H](CC(N)=O)NC(=O)[C@@H]1CCCN1C(=O)[C@H](CO)NC(=O)[C@H](CO)NC(=O)[C@H](Cc1c[nH]cn1)NC(=O)[C@H](CCCNC(=N)N)NC(=O)[C@H](CC(C)C)NC(=O)[C@H](Cc1ccccc1)NC(=O)[C@H](CCC(=O)O)NC(=O)[C@H](C)NC(=O)[C@H](CC(C)C)NC(=O)[C@H](CCCNC(=N)N)NC(=O)[C@H](CCC(N)=O)NC(=O)[C@@H](NC(=O)[C@H](C)NC(=O)[C@@H]1CSSC[C@H](NC(=O)[C@H](CCCCN)NC(=O)CC[C@H](NC(=O)CCCCCCCCCCCCCCCCCCC(=O)O)C(=O)O)C(=O)N[C@@H](CC(N)=O)C(=O)N[C@@H]([C@@H](C)O)C(=O)N[C@@H](C)C(=O)N[C@@H]([C@@H](C)O)C(=O)N1)[C@@H](C)O)C(=O)N1CCC[C@H]1C(=O)N[C@@H](CO)C(=O)N[C@@H](CO)C(=O)N[C@H](C(=O)N[C@@H](CC(N)=O)C(=O)N[C@H](C(=O)NCC(=O)N[C@@H](Cc1c[nH]cn1)C(=O)N[C@@H](CC(N)=O)C(=O)N[C@H](C(=O)N[C@@H](Cc1ccc(O)cc1)C(N)=O)[C@@H](C)O)C(C)C)[C@@H](C)O, also called compound 17) | 8.8 | 0.268 nM | 2.35 nM | 0.878 nM
{C20 diacid-γGlu}-KCNTATCATQRLAEFLRHSSPNFGAIPSSTNVGSHTY-NH2 (disulfide 2-7; SMILES CC[C@H](C)[C@H](NC(=O)[C@H](C)NC(=O)CNC(=O)[C@H](Cc1ccccc1)NC(=O)[C@H](CC(N)=O)NC(=O)[C@@H]1CCCN1C(=O)[C@H](CO)NC(=O)[C@H](CO)NC(=O)[C@H](Cc1c[nH]cn1)NC(=O)[C@H](CCCNC(=N)N)NC(=O)[C@H](CC(C)C)NC(=O)[C@H](Cc1ccccc1)NC(=O)[C@H](CCC(=O)O)NC(=O)[C@H](C)NC(=O)[C@H](CC(C)C)NC(=O)[C@H](CCCNC(=N)N)NC(=O)[C@H](CCC(N)=O)NC(=O)[C@@H](NC(=O)[C@H](C)NC(=O)[C@@H]1CSSC[C@H](NC(=O)[C@H](CCCCN)NC(=O)CC[C@H](NC(=O)CCCCCCCCCCCCCCCCCCC(=O)O)C(=O)O)C(=O)N[C@@H](CC(N)=O)C(=O)N[C@@H]([C@@H](C)O)C(=O)N[C@@H](C)C(=O)N[C@@H]([C@@H](C)O)C(=O)N1)[C@@H](C)O)C(=O)N1CCC[C@H]1C(=O)N[C@@H](CO)C(=O)N[C@@H](CO)C(=O)N[C@H](C(=O)N[C@@H](CC(N)=O)C(=O)N[C@H](C(=O)NCC(=O)N[C@@H](CO)C(=O)N[C@@H](Cc1c[nH]cn1)C(=O)N[C@H](C(=O)N[C@@H](Cc1ccc(O)cc1)C(N)=O)[C@@H](C)O)C(C)C)[C@@H](C)O, also called compound 18) | 4.8 | 0.154 nM | 0.742 nM | 0.554 nM
{C20 diacid-γGlu}-KCNTATCATQRLAEFLRHSSPNFGAIPSPTNVGSNTY-NH2 (disulfide 2-7; SMILES CC[C@H](C)[C@H](NC(=O)[C@H](C)NC(=O)CNC(=O)[C@H](Cc1ccccc1)NC(=O)[C@H](CC(N)=O)NC(=O)[C@@H]1CCCN1C(=O)[C@H](CO)NC(=O)[C@H](CO)NC(=O)[C@H](Cc1c[nH]cn1)NC(=O)[C@H](CCCNC(=N)N)NC(=O)[C@H](CC(C)C)NC(=O)[C@H](Cc1ccccc1)NC(=O)[C@H](CCC(=O)O)NC(=O)[C@H](C)NC(=O)[C@H](CC(C)C)NC(=O)[C@H](CCCNC(=N)N)NC(=O)[C@H](CCC(N)=O)NC(=O)[C@@H](NC(=O)[C@H](C)NC(=O)[C@@H]1CSSC[C@H](NC(=O)[C@H](CCCCN)NC(=O)CC[C@H](NC(=O)CCCCCCCCCCCCCCCCCCC(=O)O)C(=O)O)C(=O)N[C@@H](CC(N)=O)C(=O)N[C@@H]([C@@H](C)O)C(=O)N[C@@H](C)C(=O)N[C@@H]([C@@H](C)O)C(=O)N1)[C@@H](C)O)C(=O)N1CCC[C@H]1C(=O)N[C@@H](CO)C(=O)N1CCC[C@H]1C(=O)N[C@H](C(=O)N[C@@H](CC(N)=O)C(=O)N[C@H](C(=O)NCC(=O)N[C@@H](CO)C(=O)N[C@@H](CC(N)=O)C(=O)N[C@H](C(=O)N[C@@H](Cc1ccc(O)cc1)C(N)=O)[C@@H](C)O)C(C)C)[C@@H](C)O, also called compound 37) | 4 | 0.092 nM | 0.372 nM | 0.97 nM
{C20 diacid-γGlu}-KCNTATCATQRLAEFLRHSSPNFGAIPSSTPVGSNTY-NH2 (disulfide 2-7; SMILES CC[C@H](C)[C@H](NC(=O)[C@H](C)NC(=O)CNC(=O)[C@H](Cc1ccccc1)NC(=O)[C@H](CC(N)=O)NC(=O)[C@@H]1CCCN1C(=O)[C@H](CO)NC(=O)[C@H](CO)NC(=O)[C@H](Cc1c[nH]cn1)NC(=O)[C@H](CCCNC(=N)N)NC(=O)[C@H](CC(C)C)NC(=O)[C@H](Cc1ccccc1)NC(=O)[C@H](CCC(=O)O)NC(=O)[C@H](C)NC(=O)[C@H](CC(C)C)NC(=O)[C@H](CCCNC(=N)N)NC(=O)[C@H](CCC(N)=O)NC(=O)[C@@H](NC(=O)[C@H](C)NC(=O)[C@@H]1CSSC[C@H](NC(=O)[C@H](CCCCN)NC(=O)CC[C@H](NC(=O)CCCCCCCCCCCCCCCCCCC(=O)O)C(=O)O)C(=O)N[C@@H](CC(N)=O)C(=O)N[C@@H]([C@@H](C)O)C(=O)N[C@@H](C)C(=O)N[C@@H]([C@@H](C)O)C(=O)N1)[C@@H](C)O)C(=O)N1CCC[C@H]1C(=O)N[C@@H](CO)C(=O)N[C@@H](CO)C(=O)N[C@H](C(=O)N1CCC[C@H]1C(=O)N[C@H](C(=O)NCC(=O)N[C@@H](CO)C(=O)N[C@@H](CC(N)=O)C(=O)N[C@H](C(=O)N[C@@H](Cc1ccc(O)cc1)C(N)=O)[C@@H](C)O)C(C)C)[C@@H](C)O, also called compound 31) | 6.4 | 0.112 nM | 0.717 nM | 0.204 nM
{C20 diacid-γGlu}-KCNTATCATQRLAEFLRHSSPNFGAIPSSTNVGPNTY-NH2 (disulfide 2-7; SMILES CC[C@H](C)[C@H](NC(=O)[C@H](C)NC(=O)CNC(=O)[C@H](Cc1ccccc1)NC(=O)[C@H](CC(N)=O)NC(=O)[C@@H]1CCCN1C(=O)[C@H](CO)NC(=O)[C@H](CO)NC(=O)[C@H](Cc1c[nH]cn1)NC(=O)[C@H](CCCNC(=N)N)NC(=O)[C@H](CC(C)C)NC(=O)[C@H](Cc1ccccc1)NC(=O)[C@H](CCC(=O)O)NC(=O)[C@H](C)NC(=O)[C@H](CC(C)C)NC(=O)[C@H](CCCNC(=N)N)NC(=O)[C@H](CCC(N)=O)NC(=O)[C@@H](NC(=O)[C@H](C)NC(=O)[C@@H]1CSSC[C@H](NC(=O)[C@H](CCCCN)NC(=O)CC[C@H](NC(=O)CCCCCCCCCCCCCCCCCCC(=O)O)C(=O)O)C(=O)N[C@@H](CC(N)=O)C(=O)N[C@@H]([C@@H](C)O)C(=O)N[C@@H](C)C(=O)N[C@@H]([C@@H](C)O)C(=O)N1)[C@@H](C)O)C(=O)N1CCC[C@H]1C(=O)N[C@@H](CO)C(=O)N[C@@H](CO)C(=O)N[C@H](C(=O)N[C@@H](CC(N)=O)C(=O)N[C@H](C(=O)NCC(=O)N1CCC[C@H]1C(=O)N[C@@H](CC(N)=O)C(=O)N[C@H](C(=O)N[C@@H](Cc1ccc(O)cc1)C(N)=O)[C@@H](C)O)C(C)C)[C@@H](C)O, also called compound 32) | 6.6 | 0.05 nM | 0.327 nM | 0.1 nM
